Measurements as given in article PMC10686828, “DMSOP-cleaving enzymes are diverse and widely distributed in marine microorganisms” (Nature Microbiology, 2023).

Experiments:
[1] = substrate: C[S+](C)(=O)CCC(=O)[O-]; test: HPLC of acrylate, initial rates, non-linear fit; assay type: biochemical, Ruegeria pomeroyi; conditions: pH 8, 30 °C
Description: HPLC of acrylate, initial rates, non-linear fit on DddW | Only the catalytic efficiency of DddW for DMSOP was similar to that for DMSP

[2] = substrate: C[S+](C)(=O)CCC(=O)[O-]; test: HPLC of acrylate, initial rates, non-linear fit; assay type: biochemical, Emiliania huxleyi; conditions: pH 8, 30 °C
[3] = substrate: C[S+](C)(=O)CCC(=O)[O-]; test: HPLC of DMSO, initial rates, non-linear fit; assay type: biochemical, Psychrobacter sp.; conditions: pH 8, 30 °C, CoA, ATP, Mg2+ present
[4] = substrate: C[S+](C)(=O)CCC(=O)[O-]; test: HPLC of acrylate, initial rates, non-linear fit; assay type: biochemical, Alcaligenes faecalis; conditions: pH 8, 30 °C
[5] = substrate: C[S+](C)(=O)CCC(=O)[O-]; test: HPLC of acrylate, initial rates, non-linear fit; assay type: biochemical, Candidatus Pelagibacter communis; conditions: pH 8, 30 °C

B1: DddW (Ruegeria pomeroyi DSS-3) (protein)
chain: MTAMLDSFATDLTAATSLHQPGNLPHPPHAIDAENVPLSGGTDPTYGEVRWRTLINGTEAAPRDMVLGIAEFGPGHQLRPHRHTPPEFYLGLEGSGIVTIDGVPHEIRAGVALYIPGDAEHGTVAGPEGLRFAYGFASASFEAIEYRFTASA
notes: pET-22b, C-terminal His tag, E. coli BL21(DE3)
[1]
  Km: 11.2 ± 1.6 mM
  kcat: 26.7 ± 3.9 s⁻¹

B2: Alma1 (Emiliania huxleyi) (protein)
chain: MGNCTSHPHHEPQVHFDTVDGMATVKAFAGIRQVTMGVLRIDYEYQTNLGDILDPRSFDFRIISATAEGLTFAKAKAGDKLDATGKELLERAVRQLIDNGADFIVGDCGFLVYWQVMVRDYAQDYAQKKYGRKCPVMMSSLVLALPLLATIPSGGQIGILTASEKSLQAVQKKLPIVIEDHQKEDGGQRSRSVPAAEDPSGIMINFSDPRFKVVGLDEVKDFKHALDAQGADAVNDRRDIAVQIAAYCQKVQEKNPQIAAWLIECTEAGGFAWAIKVGTGLPVWDPITLGRFLSLGFTANVPNVALTLGQHGENPLDPSATTAGKGRCTGEEPGQIHALGAEFQAIREGTL
notes: pET-22b, C-terminal His tag, E. coli BL21(DE3); Ni-NTA and gel filtration
[2]
  Km: 8.8 ± 1.1 mM
  kcat: 0.2 ± 0.01 s⁻¹

B3: DddX (Psychrobacter sp.) (protein)
chain: LTGQIIEYTIKIQTIYTGNFKHKNGFLKMIERGIAMKKENLKILAKKAQTIAIVGANYRFATRVLLENLDKMDFTGTIYLVNPRYENIDGVRCYQSLLEIEDTIDVVVGLVNPQLMIQVASNASKINAKVLVIPGGGYGESGVEGQNIQNAILERAADSGMRIVGPNCMGYLNMHAQFTPYIGTLHRPLRPIKKGPVSIISQSGSVNDAFIASKLGISKIYSTGNEADVQMHDYLNLLAEDPETSVIILYIEAIRNHLSFLRALDLCSKNKKPVIAIKVGRTIKSAAVANAHSGALAGDYEIEKLFLEGHGVLFVEDIDQAVAVALLLSQPYLPTVNTVAALTVSGGQAGILLDLAEDYGVDFPDFSAVTNYEIASKLPELGGLSNPLDIWGKSSKDFSEVSNICLSSIVKDADIGIITVAIDAPIGQGDHEFDFTSIPAKDLASLRGNSDKPFLYFSHIQTEFDPRVESILDEAGIAVIQGSRNALVACRALFKYKEFLEKNNHTPIYSVEDLSIQKGLKLLHDNEGRKLLDESGFVSPREQVVTSLQEGVDYAESIGYPVVLKAQGLAHKTDVGGVALNIKSAAKLKKAWGKMEHLNSPYYLIQEMVTDGFETILAYRTDMNYGPVVIFGLGGIYTELFNEVVLAVPPITHKKAEQMVKSIPMLWKSIEGYRGNPALDLEALTASIVQMGETAMEKYEEIVEFEINPLSVRVKGVVALDVLASVKTTAAKEADAEEADVKKCSELV
notes: as for B2
[3]
  Km: 1 ± 0.2 mM

B4: A. faecalis DddY (Alcaligenes faecalis) (protein)
chain: AQFQCQDDVKPAAISAEEQKLVDQFWAESLVYLEQYLKALETPTGQCKDSAQATIQTYHSETGKAQTRCIMKYRDMELLAKHLKAVLAEPDKAKACFDPQKNYKEFTLYTPSSQVQQLSATSTWINRPLLTDYYTKMGGAIGAAGLELNENFLAITSRTDTTAHWTRDVSIKGLPTLWSSVGWVPLYAENPAAGSDRFRGGYLYAELMGPWGNLRIKEINGEKVGAEIGMTVQLFNTSYPFHYHHPQETYMTLTKPQCVDQNKYMVMHWDSDQFTQTRSDKGWTVEIDGSKERWKKWFANQDVNKEWLTYFERNAIHAFHALEGCNQTIQNSGLVAVWARSTSQDNEQFTQLCRPASGPDGVKRMRPGQKTVCDVRDWKP
notes: as for B2
[4]
  Km: 41.0 mM
  kcat: 26.5 s⁻¹

B5: DddK (Candidatus Pelagibacter ubique HTCC1062) (protein)
chain: MIFVKNLASVLSQEWSSTEKYPGVRWKFLIDADFDGSSGLSLGFAEIAPGGDLTLHYHSPAEIYVVTNGKGILNKSGKLETIKKGDVVYIAGNAEHALKNNGKETLEFYWIFPTDRFSEVEYFPAKQKSG
notes: pET-22b, C-terminal His tag, E. coli BL21(DE3); Ni-NTA and gel filtration; dimer in asymmetric unit; Mn2+
[5]
  Km: 24.1 ± 3.4 mM
  kcat: 14.8 ± 0.9 s⁻¹
